From the supplement of paper PMC10201428
± gives the standard deviation of the averaged measurements.

B1: library; a variant is named by its letters at N, in order (parent)
chain: AATGTTGTTGATGCAACCATAAAGTGATATTTAATAATTATTTATAATCAGCAACTTAACCACAAAACAACCATATATTGATATNTCACAAAACAACCATAANTTGATATTTTTGTGAATCGAGTATTTCAGCAAAACTACTGCAGTAAGAA

Experiments:
[1] = variants of: B1; test: relative integration efficiency (T-LR orientation) vs wild-type transposon end (log2 (normalized fold change)); transposon end mutated: left end; higher = more efficient transposition; conditions: with VchCAST RNA-guided transposition machinery (E. coli BL21(DE3) host, lacZ target)
In short: (§1)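 In E. coli BL21(DE3), a T7-driven effector plasmid was paired with a pUC57 mini-transposon donor containing 1549 left-end or 1849 right-end barcoded transposon variants. Cells grew on plates with 0.1 mM IPTG at 37°C for 18 h. Relative integration efficiency was derived from Illumina reads of genomic integration junctions against input plasmids, as a log-transformed output/input barcode fold change normalised to reference barcodes.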

[2] = variants of: B1; test: relative integration efficiency (T-RL orientation) vs wild-type transposon end (log2 (normalized fold change)); transposon end mutated: left end; higher = more efficient transposition; conditions: with VchCAST RNA-guided transposition machinery (E. coli BL21(DE3) host, lacZ target)
In short: as §1

Variant	relative integration efficiency (log2) [1]	relative integration efficiency (log2) [2]
CG T9C	0.146 ± 0.38	0.242 ± 0.0041
CG T104G T105G G106T A107C	-2.25 ± 1.7	-2.11 ± 0.66
CG A21C	-1.47 ± 0.6	-0.867 ± 0.55
CG A21T	-0.384 ± 0.81	-0.164 ± 0.16
CG A21G	-0.166 ± 0.32	-0.412 ± 0.49
CG T30G T31G T32G A33C	-1.21 ± 0.73	-1.06 ± 0.5
CG T74A A75T T76A A77T	-0.829 ± 0.96	-0.759 ± 0.32
CG C72G A73T T74A A75T	-1.75 ± 0.9	-1.77 ± 0.81
CG A27C T28G A29C T30G	-2.34 ± 1.1	-2.43 ± 0.93
TA A16C G24T T30A T76A A77G C87T T104A T110A T113A	-0.222 ± 0.22	-0.901 ± 0.53
GG T30A T31A T32A A33T T84A T86A C87G T110A T111A T112A T113A	-1.77 ± 2.3	-1.15 ± 0.64
CG C63G A64T A65T A66T	0.34 ± 0.24	0.217 ± 0.0048
TA A23G G24T A33T T76A T78G C87A A96C T112G T113C	0.535 ± 0.16	0.327 ± 0.1
CG A2T	0.355 ± 0.34	-0.141 ± 0.054
CG T12A G13A A77C T86G	-0.125 ± 0.28	-0.319 ± 0.14
CG T78A T79A G80C A81T	-1.07 ± 0.89	-1.38 ± 0.59
TA G24A T30A A70C T76A T86G T104A T110A T113A	-0.21311 ± 4.7e-05	-0.36 ± 0.27
CG C17G	0.155 ± 0.37	-0.344 ± 0.25
CG C18G C72G C98G	-0.915 ± 0.23	-0.987 ± 0.56
CG T79C	-0.488 ± 0.74	-0.605 ± 0.26
CG A27T	-1.01 ± 1.3	-0.545 ± 0.55
TA G24A T30A T76A T78A T84A C87A T104A T110A T113A	0.184 ± 0.12	0.0385 ± 0.19
CG G115A	0.113 ± 0.17	-0.259 ± 0.26

Variant	relative integration efficiency (log2) [1]	relative integration efficiency (log2) [2]
CG G115C	0.709 ± 0.14	0.417 ± 0.026
CG T41A	-0.651 ± 0.73	0.0865 ± 0.047
CG T12A G13A T30A T31C T32A T86G	-0.319 ± 0.034	-0.119 ± 0.27
CG T116A G117C	0.431 ± 0.71	0.161 ± 0.0064
CG T56A T57A A58T A59T	-1.3 ± 0.89	-1.52 ± 0.76
TG T76A T78G C87A	0.336 ± 0.26	0.505 ± 0.035
CG A2T T3A G4C T5A	-0.131 ± 0.037	-0.0191 ± 0.036
CG C71A	-0.709 ± 0.022	-0.461 ± 0.26
CG A22T T76A A102T	0.271 ± 0.39	0.269 ± 0.11
TA A16C G24T T30A A70C T76A T86G A96C T110A T113A	-0.0192 ± 0.24	-0.213 ± 0.29
CG G106C A107T T108A A109T	-1.44 ± 0.63	-1.36 ± 0.7
CG A1C A2C T3G G4T	-0.0427 ± 0.68	-0.346 ± 0.11
TG T76A T78A T84A C87A	0.281 ± 0.38	-0.028 ± 0.21
CG T111G	0.0369 ± 0.43	-0.195 ± 0.25
CG T32G A33C A34C T35G	0.074 ± 0.25	-0.364 ± 0.079
CG C60G C61G A62T C63G	0.27 ± 0.29	-0.0479 ± 0.14
CG A62C	0.284 ± 0.025	-0.0795 ± 0.022
CG T78G T79G	0.377 ± 0.26	0.387 ± 0.84
CG A58G	-0.0735 ± 0.46	-0.101 ± 0.063
CG A58T	-1.76 ± 1.7	-0.0803 ± 0.089
CG T43A A44T T45A A46T	-1.06 ± 1.4	0.138 ± 0.031
CG T110G T111G T112G T113G	-1.8 ± 1.2	-1.4 ± 0.63
CG G115T T116G	0.0607 ± 0.61	0.243 ± 0.033

Variant	relative integration efficiency (log2) [1]	relative integration efficiency (log2) [2]
CG T28G A29C T30G T31G	-2.32 ± 0.87	-1.98 ± 0.8
CG G7A	-0.532 ± 0.023	-0.156 ± 0.15
CG A46G A47G C49G A50T G51C C52T A53C A54G A58C C60G	-3.701 ± 0.037	-3.69 ± 1.2
TA T76A T78A T84A C87A T104A T110A T113A	0.357 ± 0.48	0.0146 ± 0.17
CG T30G T84G T110G	-2.2 ± 0.51	-1.92 ± 0.8
CG T32C	0.089 ± 0.39	-0.0923 ± 0.12
CG T32A	0.415 ± 0.98	0.178 ± 0.032
CG T42G	0.0763 ± 0.34	-0.115 ± 0.2
CG C14A A15C	-0.0841 ± 0.4	-0.0319 ± 0.34
CG A44C T45G	0.0152 ± 0.65	-0.0735 ± 0.14
TA A16C G24T T30A A70C T76A T86G T104G T113A	-0.388 ± 0.33	-0.652 ± 0.39
TA A22T G24T T31C A33C A70C T76A T86G A96C T112G T113C	-0.771 ± 0.36	-0.328 ± 0.2
CG T100G	-0.934 ± 1.6	-0.706 ± 0.73
TA A22T G24T T31C A33C T76A T78G C87A A96C T110A T113A	-0.606 ± 0.66	-0.329 ± 0.25
TA A16C G24T T30A T76A T78G C87A A102T T111C T113C	-0.495 ± 0.48	-0.243 ± 0.23
CG A22C A23C	-1.74 ± 0.31	-1.42 ± 0.42
CG T3C	0.718 ± 0.1	0.297 ± 0.0045
CG T3G	0.394 ± 0.5	0.0915 ± 0.044
CG A11T T12A	-1.18 ± 0.28	-0.325 ± 0.19
CG T48A	0.212 ± 0.68	0.162 ± 0.22
TG T76A A77G C87T	0.266 ± 0.15	-0.247 ± 0.35
CG A11C T12G G13T C14A	-1.55 ± 0.089	-0.699 ± 0.47
CG T31G T32G	-0.16 ± 0.58	-0.225 ± 0.34

Variant	relative integration efficiency (log2) [1]	relative integration efficiency (log2) [2]
CG A64C A65C	-0.354 ± 0.13	-0.201 ± 0.15
CG T86A C87G	0.622 ± 0.21	0.28 ± 0.099
CT T104G	-0.14 ± 0.17	-0.45 ± 0.14
CG A73C T74G A75C T76G	-1.86 ± 0.67	-2.23 ± 0.73
CG T12A G13A T30A T31C A77C T86G	-1.07 ± 0.047	-0.538 ± 0.15
CA A22T G24T T31C A33C A96C T110A T113A	-0.837 ± 0.2	-0.802 ± 0.25
CG T45G A46C A47C T48G	-0.0893 ± 0.7	-0.487 ± 0.43
TG A16C G24T T30A T76A T78G C87A	-0.0456 ± 0.17	0.0194 ± 0.14
CG G117C A118T A119T T120A	0.101 ± 0.3	0.268 ± 0.02
CG T12A G13A T32A A77C T86G	0.117 ± 0.45	-0.0481 ± 0.05
CG T30A	0.497 ± 0.092	0.256 ± 0.046
TA A23G G24T A33T T76A T78G C87A A102T T111C T113C	-0.451 ± 0.41	-0.227 ± 0.17
CG A91T A92T	0.705 ± 0.2	0.108 ± 0.066
CG G26C A27T T28A A29T	-1.67 ± 0.28	-1.58 ± 0.67
CA A22T G24T T31C A33C A96C T112G T113C	-0.822 ± 0.81	-0.76 ± 0.32
CG T45G	-0.109 ± 0.19	-0.0406 ± 0.053
CA A23G G24T A33T T104A T110A T113A	-0.166 ± 0.3	-0.424 ± 0.22
CG T113G T114G G115T T116G G117T A118C A119C T120G C121A G122T A123C G124T T125G	-0.192 ± 0.1	-0.0695 ± 0.04
CG A23T G24C	0.111 ± 0.07	-0.0468 ± 0.13
CG G106T A107C T108G A109C	-2.4 ± 0.46	-2.01 ± 0.81
CG A23C	0.494 ± 0.15	-0.467 ± 0.23
CG A54C	-0.339 ± 0.014	-0.178 ± 0.022
CG A54G	0.358 ± 0.56	0.00787 ± 0.0088

Variant	relative integration efficiency (log2) [1]	relative integration efficiency (log2) [2]
TG A16C G24T T32G A33C T76A A77G C87T	-0.184 ± 0.15	-0.603 ± 0.47
CG T8A	-0.491 ± 0.035	-0.209 ± 0.19
CG T114A	-0.000535 ± 0.15	-0.291 ± 0.097
CG T12G G13T C14A A15C	-0.59 ± 0.54	-0.224 ± 0.3
CG G80A	-0.967 ± 1.4	-0.773 ± 0.37
CG T110A	0.258 ± 0.5	-0.016 ± 0.099
CG T28G A29C	-1.26 ± 0.97	-1.24 ± 0.55
CG A65T A66T A67T C68G	-0.641 ± 0.54	-0.247 ± 0.37
CG T35A A36T	0.24 ± 0.31	0.1527 ± 0.00087
CG T41A A44G A46T A50C A53T A54C C55A T56C T57A A59T C60T A62C	-2.59 ± 1.4	-3.65 ± 0.63
CG T114A G115C T116A G117C	-0.217 ± 0.74	-0.00788 ± 0.19
CG A102G	-1.58 ± 1.1	-0.825 ± 0.55
CG A29G	-0.232 ± 0.74	-0.238 ± 0.44
CG A65C	0.328 ± 0.076	0.247 ± 0.051
CG T86G C87A	-0.424 ± 0.33	-0.246 ± 0.1
CG A59C C60A	-0.233 ± 0.25	-0.0701 ± 0.0044
CG A37T	0.0565 ± 0.29	-0.0666 ± 0.052
CA A16C G24T T30A A96C T110A T113A	-0.499 ± 0.66	-0.208 ± 0.19
CG G4T T5G	-0.37 ± 0.2	-0.366 ± 0.035
CG A58C A59C	-0.146 ± 0.33	-0.0826 ± 0.066
TA A22T G24T T31C A33C T76A A77G C87T A96C T112G T113C	-0.0329 ± 0.84	-0.66 ± 0.42
CG A1C A2C T3G G4T T5G	-0.299 ± 0.17	-0.197 ± 0.14
CG T12A G13A T30A T31C T32A A77C	-1.73 ± 0.73	-0.517 ± 0.24
